Laboratory results: PMC9871967, “A hnRNPA2B1 agonist effectively inhibits HBV and SARS-CoV-2 omicron in vivo” (Protein & Cell, 2022)

Molecular target: the molecule itself
Assay: native gel or EMSA; HepG2.2.15 cells treated with PAC5 (10 μmol/L) for the indicated time; cell lysates on native PAGE, hnRNPA2B1-dimerization assay by immunoblot

B1: heterogeneous nuclear ribonucleoprotein A2B1 (natural protein, UniProt P22626 1-353, looked up)
chain: MEKTLETVPLERKKREKEQFRKLFIGGLSFETTEESLRNYYEQWGKLTDCVVMRDPASKRSRGFGFVTFSSMAEVDAAMAARPHSIDGRVVEPKRAVAREESGKPGAHVTVKKLFVGGIKEDTEEHHLRDYFEEYGKIDTIEIITDRQSGKKRGFGFVTFDDHDPVDKIVLQKYHTINGHNAEVRKALSRQEMQEVQSSRSGRGGNFGFGDSRGGGGNFGPGPGSNFRGGSDGYGSGRGFGDGYNGYGGGPGGGNFGGSPGYGGGRGGYGGGGPGYGNQGGGYGGGYDNYGGGNYGSGNYNDFGNYNQQPSNYGPMKSGNFGGSRNMGGPYGGGNYGPGGSGGSGGYGGRSRY
notes: heterogeneous nuclear ribonucleoprotein A2B1, endogenous in human hepatoma cell lines, precipitated and detected with anti-hnRNPA2B1 (Santa Cruz sc-32316); Endogenous protein; also called hnRNPA2B1; source: endogenous, HepG2.2.15, HepAD38 and HepG2 cell lysates
stoichiometry N: 2
